# Results reported in article doi:10.1101/2022.01.21.477187 (bioRxiv, 2022).
# B1: human CENP-E483 followed by two tandem mNeonGreen fluorophores (domain or fragment, UniProt Q02224 1-483, looked up)
# chain: MAEEGAVAVCVRVRPLNSREESLGETAQVYWKTDNNVIYQVDGSKSFNFDRVFHGNETTKNVYEEIAAPIIDSAIQGYNGTIFAYGQTASGKTYTMMGSEDHLGVIPRAIHDIFQKIKKFPDREFLLRVSYMEIYNETITDLLCGTQKMKPLIIREDVNRNVYVADLTEEVVYTSEMALKWITKGEKSRHYGETKMNQRSSRSHTIFRMILESREKGEPSNCEGSVKVSHLNLVDLAGSERAAQTGAAGVRLKEGCNINRSLFILGQVIKKLSDGQVGGFINYRDSKLTRILQNSLGGNAKTRIICTITPVSFDETLTALQFASTAKYMKNTPYVNEVSTDEALLKRYRKEIMDLKKQLEEVSLETRAQAMEKDQLAQLLEEKDLLQKVQNEKIENLTRMLVTSSSLTLQQELKAKRKRRVTWCLGKINKMKNSNYADQFNIPTNITTKTHKLSINLLREIDESVCSESDVFSNTLDTLSEIE
# notes: CENP-E, human, N-terminal truncation with the motor domain and the first predicted coiled-coil (334-401); Codon-optimised synthetic gene in pFastBac1; predicted monomer mass 109 kDa with the tags; also called truncated CENP-E483; source: Sf9 cells (baculovirus), purified (HisTrap HP, Superose 6 Increase); not shown: 2x tandem mNeonGreen, C-terminal, kept
# B2: truncated human CENP-E754 containing five predicted coiled-coils of the native stalk (domain or fragment, UniProt Q02224 1-754, looked up)
# chain: MAEEGAVAVCVRVRPLNSREESLGETAQVYWKTDNNVIYQVDGSKSFNFDRVFHGNETTKNVYEEIAAPIIDSAIQGYNGTIFAYGQTASGKTYTMMGSEDHLGVIPRAIHDIFQKIKKFPDREFLLRVSYMEIYNETITDLLCGTQKMKPLIIREDVNRNVYVADLTEEVVYTSEMALKWITKGEKSRHYGETKMNQRSSRSHTIFRMILESREKGEPSNCEGSVKVSHLNLVDLAGSERAAQTGAAGVRLKEGCNINRSLFILGQVIKKLSDGQVGGFINYRDSKLTRILQNSLGGNAKTRIICTITPVSFDETLTALQFASTAKYMKNTPYVNEVSTDEALLKRYRKEIMDLKKQLEEVSLETRAQAMEKDQLAQLLEEKDLLQKVQNEKIENLTRMLVTSSSLTLQQELKAKRKRRVTWCLGKINKMKNSNYADQFNIPTNITTKTHKLSINLLREIDESVCSESDVFSNTLDTLSEIEWNPATKLLNQENIESELNSLRADYDNLVLDYEQLRTEKEEMELKLKEKNDLDEFEALERKTKKDQEMQLIHEISNLKNLVKHAEVYNQDLENELSSKVELLREKEDQIKKLQEYIDSQKLENIKMDLSYSLESIEDPKQMKQTLFDAETVALDAKRESAFLRSENLELKEKMKELATTYKQMENDIQLYQSQLEAKKKMQVDLEKELQSAFNEITKLTSLIDGKVPKDLLCNLELEGKITDLQKELNKEVEENEALREEVILLSELKSLPS
# notes: CENP-E, human, N-terminal truncation with the motor domain and five predicted coiled-coils; source: Sf9 cells (baculovirus), purified (HisTrap HP, Superose 6 Increase); not shown: 2x tandem mNeonGreen, C-terminal, kept
# Key:
# [1] = biological target: the molecule itself; assay: native gel or EMSA; native PAGE of purified CENP-E483; species at ~100 kDa and ~230 kDa
# [2] = biological target: the molecule itself; assay: single-molecule photobleaching steps and initial intensity (TIRF); 0.5 nM fluorescent motor adsorbed non-specifically on silanised coverslips, BRB80 with oxygen scavengers; bleaching steps counted by hand; K560-2mNG as intensity reference
Protein,stoichiometry N [1],binding result [2]
B1,2,–
B2,–,binds
